# Source: paper PMC8318587, “Structure-guided microbial targeting of antistaphylococcal prodrugs” (eLife, 2021)
# B1: SaGloB (Staphylococcus aureus subsp. aureus str. Newman) (protein)
# chain: MRISSLTLGLVDTNTYFIENDKAVILIDPSGESEKIIKKLNQINKPLKAILLTHAHFDHIGAVDDIVDRFDVPVYMHEAEFDFLKDPVKNGADKFKQYGLPIITSKVTPEKLNEGSTEIEGFKFNVLHTPGHSPGSLTYVFDEFAVVGDTLFNNGIGRTDLYKGDYETLVDSIQDKIFELEGDLPLFPGHGPYTTVDDEQLNPFLHG
# Key:
# Assay in all cases: Esterase substrate specificity, fluorogenic SAR library kinetics
# Type in all cases: biochemical, Staphylococcus aureus
# Settings in all cases: other: SaGloB, fluorogenic ester substrate; pH 7.5; 37.0 °C
# [1] = substrate: CC(C)OCC(=O)OCOc1ccc2c(c1)Oc1cc(OCOC(=O)COC(C)C)ccc1C21OC(=O)c2ccccc21
# Description: (§1) Kinetic measurements were performed according to [White et al., 2018] with minor variation. Lyophilized human and mouse sera were resuspended according to manufacturer instructions in highly pure, filtered water at protein concentrations of 85 mg/mL and 70 mg/mL, respectively. One milliliter of resuspended serum was added to a 24 mL mastermix for a final concentration of 31.25 mM Tris pH 7.5, 312.5 mM NaCl, 1.25 mM MgCl2, 12.5% glycerol, and 3.4 mg/mL or 2.8 mg/mL protein for human and mouse serum, respectively. For purified proteins, 5 mL of a 75 µg/mL stock was added to yield a 20 mL mastermix containing 31.25 mM Tris pH 7.5, 312.5 mM NaCl, 1.25 mM MgCl2, 12.5% glycerol, and 18.75 µg/mL protein. Mastermix was stored on ice when not in use. Twenty microliters of mastermix was transferred to a black, 96-well half area microplate (Corning, CLS3993) and prewarmed at 37°C. Fluorogenic substrates were prepared as 10 mM stock solutions in 100% DMSO and were diluted in water to a starting concentration of 500 µM. Enzyme catalyzed substrate hydrolysis was initiated by addition of 5 µL substrate dilution in technical duplicate to the prewarmed serum or protein solution. Final assay concentrations were as follows: 25 mM Tris pH 7.5, 250 mM NaCl, 1 mM MgCl2, 10% glycerol, and protein at a concentration of 2.72 mg/mL (human serum), 2.24 mg/mL (mouse serum), or 15 µg/mL (FrmB, GloB). The resulting change in fluorescence (λex = 485 nm, λem = 520 nm) was followed for 15 min at 37°C, collecting data every 30 s on a FLUOstar Omega microplate reader (BMG Labtech). Fluorescence measurements were converted to molar concentrations using a fluorescein standard curve (2.5 nmol–0.6 pmol). The initial rates of reaction were measured three independent times with two technical replicates per measurement and fit to a line using GraphPad Prism (GraphPad Software, La Jolla, CA). Initial rates of reaction were plotted versus the concentration of substrate and fit to a standard Michaelis–Menten equation (v = Vmax[S]/(Km + [S])), yielding estimates of Vmax and Km. Values for kcat and kcat/Km were calculated based on amount of enzyme added when purified enzymes were used.
# [2] = substrate: CC(C)SCC(=O)OCOc1ccc2c(c1)Oc1cc(OCOC(=O)CSC(C)C)ccc1C21OC(=O)c2ccccc21
# Description: as §1
# [3] = substrate: CCC(OC)C(=O)OCOc1ccc2c(c1)Oc1cc(OCOC(=O)C(CC)OC)ccc1C21OC(=O)c2ccccc21
# Description: as §1
# [4] = substrate: CCCC(=O)OCOc1ccc2c(c1)Oc1cc(OCOC(=O)CCC)ccc1C21OC(=O)c2ccccc21
# Description: as §1
# [5] = substrate: CCCC(C)C(=O)OCOc1ccc2c(c1)Oc1cc(OCOC(=O)C(C)CCC)ccc1C21OC(=O)c2ccccc21
# Description: as §1
# [6] = substrate: CCCCC(=O)OCOc1ccc2c(c1)Oc1cc(OCOC(=O)CCCC)ccc1C21OC(=O)c2ccccc21
# Description: as §1
# [7] = substrate: CCCOCC(=O)OCOc1ccc2c(c1)Oc1cc(OCOC(=O)COCCC)ccc1C21OC(=O)c2ccccc21
# Description: as §1
# [8] = substrate: CCOCCC(=O)OCOc1ccc2c(c1)Oc1cc(OCOC(=O)CCOCC)ccc1C21OC(=O)c2ccccc21
# Description: as §1
# [9] = substrate: CCSC(C)C(=O)OCOc1ccc2c(c1)Oc1cc(OCOC(=O)C(C)SCC)ccc1C21OC(=O)c2ccccc21
# Description: as §1
# [10] = substrate: COC(C)C(=O)OCOc1ccc2c(c1)Oc1cc(OCOC(=O)C(C)OC)ccc1C21OC(=O)c2ccccc21
# Description: as §1
# [11] = substrate: COCCC(=O)OCOc1ccc2c(c1)Oc1cc(OCOC(=O)CCOC)ccc1C21OC(=O)c2ccccc21
# Description: as §1
# [12] = substrate: CSC(C)C(=O)OCOc1ccc2c(c1)Oc1cc(OCOC(=O)C(C)SC)ccc1C21OC(=O)c2ccccc21
# Description: as §1
# [13] = substrate: CSCC(=O)OCOc1ccc2c(c1)Oc1cc(OCOC(=O)CSC)ccc1C21OC(=O)c2ccccc21
# Description: as §1
protein,measurement,setting,value
B1,Km,[1],12.0 µM
same,Vmax,[1],2.91 pmol*min-1*μg protein-1
same,kcat,[1],0.435 10-3 s-1
same,kcat/Km,[1],36.1 M⁻¹ s⁻¹
same,Km,[2],65.8 µM
same,Vmax,[2],4.19 pmol*min-1*μg protein-1
same,kcat,[2],0.627 10-3 s-1
same,kcat/Km,[2],9.53 M⁻¹ s⁻¹
same,Km,[3],55.5 µM
same,Vmax,[3],2.54 pmol*min-1*μg protein-1
same,kcat,[3],0.380 10-3 s-1
same,kcat/Km,[3],6.84 M⁻¹ s⁻¹
same,Km,[4],6.23 µM
same,Vmax,[4],0.497 pmol*min-1*μg protein-1
same,kcat,[4],0.0744 10-3 s-1
same,kcat/Km,[4],11.9 M⁻¹ s⁻¹
same,Km,[5],84.89 µM
same,Vmax,[5],0.351 pmol*min-1*μg protein-1
same,kcat,[5],0.0524 10-3 s-1
same,kcat/Km,[5],0.618 M⁻¹ s⁻¹
same,Km,[6],18.33 µM
same,Vmax,[6],0.292 pmol*min-1*μg protein-1
same,kcat,[6],0.0436 10-3 s-1
same,kcat/Km,[6],2.38 M⁻¹ s⁻¹
same,Km,[7],8.41 µM
same,Vmax,[7],4.21 pmol*min-1*μg protein-1
same,kcat,[7],0.630 10-3 s-1
same,kcat/Km,[7],74.8 M⁻¹ s⁻¹
same,Km,[8],21.2 µM
same,Vmax,[8],0.731 pmol*min-1*μg protein-1
same,kcat,[8],0.109 10-3 s-1
same,kcat/Km,[8],5.15 M⁻¹ s⁻¹
same,Km,[9],79.8 µM
same,Vmax,[9],1.02 pmol*min-1*μg protein-1
same,kcat,[9],0.153 10-3 s-1
same,kcat/Km,[9],1.92 M⁻¹ s⁻¹
same,Km,[10],20.5 µM
same,Vmax,[10],23.1 pmol*min-1*μg protein-1
same,kcat,[10],3.45 10-3 s-1
same,kcat/Km,[10],168 M⁻¹ s⁻¹
same,Km,[11],18.0 µM
same,Vmax,[11],1.39 pmol*min-1*μg protein-1
same,kcat,[11],0.208 10-3 s-1
same,kcat/Km,[11],11.5 M⁻¹ s⁻¹
same,Km,[12],49.5 µM
same,Vmax,[12],0.722 pmol*min-1*μg protein-1
same,kcat,[12],0.108 10-3 s-1
same,kcat/Km,[12],2.18 M⁻¹ s⁻¹
same,Km,[13],32.49 µM
same,Vmax,[13],14.9 pmol*min-1*μg protein-1
same,kcat,[13],2.22 10-3 s-1
same,kcat/Km,[13],68.4 M⁻¹ s⁻¹
